Reference: paper PMC9300613 (2022)

B1: HsKHC-MDN (human kinesin-1 heavy chain KIF5B construct equivalent to CaKip3-MDN) (domain or fragment)
chain: MADLAECNIKVMCRFRPLNESEVNRGDKYIAKFQGEDTVVIASKPYAFDRVFQSSTSQEQVYNDCAKKIVKDVLEGYNGTIFAYGQTSSGKTHTMEGKLHDPEGMGIIPRIVQDIFNYIYSMDENLEFHIKVSYFEIYLDKIRDLLDVSKTNLSVHEDKNRVPYVKGCTERFVCSPDEVMDTIDEGKSNRHVAVTNMNEHSSRSHSIFLINVKQENTQTEQKLSGKLYLVDLAGSEKVSKTGAEGAVLDEAKNINKSLSALGNVISALAEGSTYVPYRDSKMTRILQDSLGGNCRTTIVICCSPSSYNESETKSTLLFGQRAKTIKNTVCVN
B2: CaKip3-MDN (Candida albicans Kip3 motor domain and slightly truncated neck-linker, residues 1-436) (domain or fragment)
chain: MSYPNSLGSPATVTSTSVPTAKQSSISVAVRVRPFTEAESNRLVKIDNDDVFLGDGCLTSDNNNNNNNSNSNGNGNGNGSSAANSSGASTSRRAIFNTLGGLRKIINVVDDRMLIFDPPETNPLTKMQRNAFPNSFKGSRIREHRFVFDRLFDEDCTQDQVYRNTTQPLLDSVLDGYNATVFAYGATGCGKTHTISGTPEDPGVIFLTMKELYNRIEELKDTKIIDISLSYLEIYNETIRDLLNPMTQCKNLVIREDANNKISVSNLSRHRPNSVEEVMQLILEGNKNRTCSPTEANATSSRSHAVLQINVIQKDRTGDITEEHTFATLSIIDLAGSERAAATKNRGARLNEGANINKSLLALGNCINALCDPRRRNHVPYRDSKLTRLLKFSLGGNCKTVMIVCVSPSSQHYDETLNTLKYADRAKEIKTKLIRN

Biological target: bovine brain αβ-tubulin (taxol-stabilised microtubules, dolastatin-induced rings or DARPin-capped free dimer … (bovine, UniProt Q6B856 1-445))
Test: AMPPNP

Sequence of bovine brain αβ-tubulin (taxol-stabilised microtubules, dolastatin-induced rings or DARPin-capped free dimer … (chain, as listed by the source, chain 1 of 2): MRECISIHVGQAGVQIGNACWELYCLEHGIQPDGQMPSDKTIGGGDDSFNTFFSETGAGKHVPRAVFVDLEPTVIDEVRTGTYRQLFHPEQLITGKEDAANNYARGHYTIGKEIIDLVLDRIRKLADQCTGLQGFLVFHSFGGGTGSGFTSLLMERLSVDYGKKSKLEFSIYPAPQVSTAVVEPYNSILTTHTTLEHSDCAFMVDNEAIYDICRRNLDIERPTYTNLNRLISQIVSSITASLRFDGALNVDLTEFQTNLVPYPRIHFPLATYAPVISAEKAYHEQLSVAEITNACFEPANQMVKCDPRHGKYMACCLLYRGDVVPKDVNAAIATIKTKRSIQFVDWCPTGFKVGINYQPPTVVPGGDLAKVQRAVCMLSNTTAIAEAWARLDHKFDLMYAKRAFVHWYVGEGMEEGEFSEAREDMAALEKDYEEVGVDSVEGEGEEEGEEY
Sequence of bovine brain αβ-tubulin (taxol-stabilised microtubules, dolastatin-induced rings or DARPin-capped free dimer … (Q6B856 whole entry, chain 2 of 2): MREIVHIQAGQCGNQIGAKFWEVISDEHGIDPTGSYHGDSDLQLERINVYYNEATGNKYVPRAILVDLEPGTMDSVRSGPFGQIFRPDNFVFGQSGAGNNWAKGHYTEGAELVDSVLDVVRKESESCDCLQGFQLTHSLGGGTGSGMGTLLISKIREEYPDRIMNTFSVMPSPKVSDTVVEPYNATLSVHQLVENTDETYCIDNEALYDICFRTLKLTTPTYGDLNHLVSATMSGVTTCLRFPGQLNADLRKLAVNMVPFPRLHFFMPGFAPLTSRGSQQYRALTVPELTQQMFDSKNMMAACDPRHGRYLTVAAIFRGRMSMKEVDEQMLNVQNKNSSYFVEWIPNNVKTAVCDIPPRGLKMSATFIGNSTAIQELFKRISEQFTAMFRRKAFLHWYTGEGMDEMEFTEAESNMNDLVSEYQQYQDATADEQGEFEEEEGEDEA

| Binder | Kd |
| --- | --- |
| B1 | 350 nM |
| B2 | 43 nM |
